From patent US20250376498A1, “FUSION PROTEINS COMPRISING AN IMPROVED GLP-1 RECEPTOR AGONIST AND USES THEREOF” (Guangzhou Innogen Pharmaceutical Group Co., Ltd., priority 2022, published 2025)
Entries after “also recorded” stand apart in the source; their conditions may differ.

Columns and labels:
[1] = system: patients with T2DM; settings: 1 mg YN-011, 24 weeks
[2] = human, in vivo
[3] = system: NASH Rhesus monkeys; experiment: NASH Rhesus monkeys, body weight, lipids, glucose, food consumption, tolerability; assay type: in vivo
Experimental: The in vivo pharmacological study of YN-011 was conducted in NASH Rhesus monkeys. The evaluated clinical parameters included liver lipid content assessed by MRI-PDFF %, NAFLD Activity Score (NAS), liver fibrosis stage assessed by liver histology, body weight, body mass index (BMI), blood lipid profile, fructose metabolism, other biochemical parameters, and food consumption.
The selected Rhesus monkeys were 11-23 years old, which corresponds to 30-70 years in humans. All Rhesus monkeys were males, with weights ranging from 13.63 to 22.85 kg. They had abnormal lipid metabolism for more than 2 years, MRI-PDFF % ranging from 7.8% to 11.9%, NAS scores of 3 or higher, and fibrosis scores of 0-1c within 6 months. These animals clinically met the definition of NASH.
Fifteen Rhesus monkeys were divided into 3 groups, with 5 monkeys in each group. They received subcutaneous injections of 0 (solvent control, placebo control group), 0.050, or 0.150 mg/kg of YN-011 once a week for 13 weeks (QW). The 0.150 mg/kg YN-011 group received adaptive dosing (0.1 mg/kg for the first dose, followed by 0.150 mg/kg for the remaining 12 doses).

[4] = system: T2DM subjects; experiment: Phase IIa clinical trial, efficacy and safety in T2DM subjects; assay type: in vivo, human
Experimental: Key inclusion criteria for the phase IIa study: • Patients with T2DM (WHO 1999) who have not taken metformin for at least 1 week and have not taken any other oral antidiabetic drugs for at least 2 weeks. • HbA1c levels at screening: 7.0%≤HbA1c≤10.0%. • Age between 18 and 65 years at screening. • BMI ≥20 kg/m^2 and ≤40 kg/m^2.
Key exclusion criteria for the phase IIa study: • Type 1 diabetes. • Fasting C-peptide <0.81 ng/mL. • Laboratory parameters meeting one of the following criteria: alanine aminotransferase (ALT) levels ≥2.5 ×ULN, and/or aspartate aminotransferase (AST) levels ≥2.5 ×ULN, fasting triglycerides >5.6 mmol/L; estimated glomerular filtration rate (eGFR) calculated by the CKD-EPI (EPI-(Scr)) equation <45 mL/min/1.73 m^2, • Known susceptibility to familial (first-degree relatives) or personal history of type 2 multiple endocrine neoplasia or medullary thyroid carcinoma. • Uncontrolled hypertension. • Known history of pancreatitis, pancreatic cancer, or serum amylase >1.2 ×ULN, or high-risk factors for pancreatitis at screening. • Patients with uncontrolled hypothyroidism. • Suspicion of active infection. • Positive hepatitis B surface antigen (HBsAg), hepatitis C antibody (HCV-Ab), human immunodeficiency virus antibody (HIV-Ab), or Treponema pallidum antibody (TPAb). • Treatment with GLP-1 receptor agonists, DPP-4 inhibitors, or insulin in the 3 months prior to randomization. • History of grade 3-4 allergy to any protein drug as per CTCAE. • Blood donation or blood loss exceeding 450 mL in the 3 months prior to screening. • Any significant endocrine, immune, coagulation, urinary reproductive tract abnormality, or hematological disease. • Clinically significant gastric emptying disorder (e.g., gastric outlet obstruction), severe chronic gastrointestinal disease (e.g., active ulcer within 6 months), long-term use of drugs directly affecting gastrointestinal motility, or previous gastrointestinal surgery. • Any other condition that the investigator or primary physician deems unsuitable for participation in the study. […]

[5] = system: INS-1 cells; experiment: Assessment of YN-011 activity by inducing cAMP levels in INS-1 cells; assay type: cell-based; settings: YN-011 120 nM
Experimental: Natural GLP-1 stimulates insulin secretion from beta cells in a glucose-dependent manner. […] INS-1 cells were serum-starved and glucose-starved, then treated with different amounts of purified YN-011 in the presence of 0, 5, or 20 mM glucose as indicated.
Furthermore, the blank control (SF1) and the two samples with the […] hydroxylation levels (SF4 and SF5) were tested for the biological activity of YN-011 using the method described in Example 1. […] Thus, higher hydroxylation levels tend to increase the biological activity.

B1: YN-011: GLP-1 fusion protein of SEQ ID NO: 7: GLP-1 (A8G, G22E, R36G), linker peptide and IgG2/Fc domain (C222S, A330S, P331S) (protein)
chain: HGEGTFTSDVSSYLEEQAAKEFIAWLVKGGGSSGAPPPSGGGGSERKSCVECPPCPAPPVAGPSVFLFPPKPKDTLMISRTPEVTCVVVDVSHEDPEVQFNWYVDGVEVHNAKTKPREEQFNSTFRVVSVLTVVHQDWLNGKEYKCKVSNKGLPSSIEKTISKTKGQPREPQVYTLPPSREEMTKNQVSLTCLVKGFYPSDIAVEWESNGQPENNYKTTPPMLDSDGSFFLYSKLTVDKSRWQQGNVFSCSVMHEALHNHYTQKSLSLSPG
In the case of B1, the “reduction in HbA1c levels” value [1] is reported as 1.73%, the “half-life compared with SUPA-1, Dulaglutide and Semaglutide” value [2] is reported as “significantly longer half-life than Dulaglutide and Semaglutide” and the “plasma concentration steady state” value [2] is reported as “reached a steady state after the fourth dose”. The “median Tmax” value ([2]; sc) was 60 to 84 h, the food consumption [3] was “dose-dependent reduction” and the “high-density lipoprotein cholesterol (HDL-c) compared to baseline” value [3] was “decreasing trend”. For the same molecule, the “plasma fasting plasma glucose (FPG) levels, YN-011 vs placebo” value [3] was “no significant differences”, the “reduction of plasma fructosamine (FRA)” value ([3]; 150 μg/kg, after 12 weeks of treatment) was 4.3% and the adverse reactions ([3]; 0.050 or 0.150 mg/kg sc QW, 13 weeks) was “No significant adverse reactions”. The “body weight and BMI compared to baseline” value ([3]; Day 7-Day 84) was “significant decrease”, the “serum LDL-c, total cholesterol (TC) and total triglycerides (TG)” value ([3]; various time points during treatment) was “significantly reduced” and the “side effects or safety risks” value ([4]; 1-4 mg sc) was “No significant side effects or safety risks”. The “HbA1c levels compared to placebo” value ([4]; multiple sc administrations, 1 mg, 3 mg or 4 mg, p<0.05) was “persistent improvement; also recorded: significant difference compared to the placebo”, the “fasting blood glucose compared to placebo” value ([4]; multiple sc administrations, 3 mg or 4 mg, p<0.05) was “statistically significant improvement; also recorded: significant difference compared to the placebo” and the cAMP levels ([5]; 5 mM glucose, comparable to exendin-4) was “significantly increased”. For the same molecule, the cAMP levels ([5]; absence of glucose) was “maintained basal levels of cAMP”.
